{"source": "patent EP4729537A1", "about": "“B-LACTAMASE-INHIBITING ANTIBODY AND USE THEREOF IN THE TREATMENT AND/OR PREVENTION OF INFECTIONS CAUSED BY B-LACTAMASE-PRODUCING BACTERIA” (priority 2023, dated 2024)", "key": {"[1]": {"tested_on": "O=C(Cc1cccs1)N[C@@H]1C(=O)N2C(C(=O)O)=C(/C=C/c3ccc([N+](=O)[O-])cc3[N+](=O)[O-])CS[C@H]12", "assay": "nitrocefin hydrolysis assay with E. coli BL21(DE3) cells expressing the β-lactamase in the periplasm", "assay_type": "cell-based, Klebsiella pneumoniae", "settings": "other: E. coli cells, control without antibody (controls of the B2 and B5 runs)", "method": "(§1) An in vivo assay was conducted to test the inhibitory capacity of four β-lactamases from three resistant microorganisms: BlaMab from Mycobacterium abscessus, KPC-2 (UNIPROT Q9F663) and OXA-48 (UNIPROT Q6XEC0) from Klebsiella pneumoniae, and VIM-2 (UNIPROT B8QIQ9) from Pseudomonas aeruginosa. The assay utilized BL21(DE3) strain cells of Escherichia coli transformed with the expression vector pET26b(+) along with the gene sequence of each β-lactamase. Cells successfully transformed with the vector and insert were selected using a Kanamycin resistance gene (KanR) present in the vector. […] Additionally, the pET26b(+) vector has an IPTG-inducible promoter to activate the translation of the corresponding β-lactamase. The plasmid also includes a pelB export signal directing the β-lactamase to the periplasmic space of the bacteria for the inhibition assay with Ndis (nanobodies, single-domain antibodies).\n(§2) This compound changes color from yellow to red when hydrolyzed by β-lactamase, which can be quantified by measuring absorbance at 490nm."}, "[2]": {"tested_on": "O=C(Cc1cccs1)N[C@@H]1C(=O)N2C(C(=O)O)=C(/C=C/c3ccc([N+](=O)[O-])cc3[N+](=O)[O-])CS[C@H]12", "assay": "nitrocefin hydrolysis assay with E. coli BL21(DE3) cells expressing the β-lactamase in the periplasm", "assay_type": "cell-based, Pseudomonas aeruginosa", "settings": "other: E. coli cells, control without antibody (controls of the B2 and B5 runs)", "method": "as §1, §2"}}, "note": "“And” between values parts separate entries of the source, which are not always exact repeats. Equal entries are not always repeated."}
{"substance": "OXA-48 (UNIPROT Q6XEC0) from Klebsiella pneumoniae (Klebsiella pneumoniae)", "values": [{"measurement": "Km", "setting": "[1]", "value": 4.48, "unit": "µM"}]}
{"substance": "VIM-2 (UNIPROT B8QIQ9) from Pseudomonas aeruginosa (Pseudomonas aeruginosa)", "values": [{"measurement": "Km", "setting": "[2]", "value": "4.35 µM and 6.75 µM"}]}
